Laboratory results taken from publication PMC2992962 (Protein expression and purification, 2010).

Biological target: the molecule itself
Test: SEC

B1: recombinant human his-GAPDHS (sperm-specific glyceraldehyde-3-phosphate dehydrogenase lacking the proline-rich N-terminal sequence) (enzyme)
chain: MVSVARELTVGINGFGRIGRLVLRACMEKGVKVVAVNDPFIDPEYMVYMFKYDSTHGRYKGSVEFRNGQLVVDNHEISVYQCKEPKQIPWRAVGSPYVVESTGVYLSIQAASDHISAGAQRVVISAPSPDAPMFVMGVNENDYNPGSMNIVSNASCTTNCLAPLAKVIHERFGIVEGLMTTVHSYTATQKTVDGPSRKAWRDGRGAHQNIIPASTGAAKAVTKVIPELKGKLTGMAFRVPTPDVSVVDLTCRLAQPAPYSAIKEAVKAAAKGPMAGILAYTEDEVVSTDFLGDTHSSIFDAKAGIALNDNFVKLISWYDNEYGYSHRVVDLLRYMFSRDK
How did the “stoichiometry N” value turn out when B1 was run?
Its value is 4.
